Test results as given in publication PMC12036799 (Metabolism: clinical and experimental, 2025).
Values joined by “and” are separate entries in the source; they are usually repeats but may differ in a detail not shown here. Identical values can stand only once.

Target: the molecule itself
Test: dimer-tetramer equilibrium assay

B1: recombinant ALDOB WT (aldolase B) (enzyme, UniProt Q91Y97 1-364, looked up)
chain: MAHRFPALTPEQKKELSEIAQRIVANGKGILAADESVGTMGNRLQRIKVENTEENRRQFRELLFSVDNSISQSIGGVILFHETLYQKDSQGNLFRNVLKEKGIVVGIKLDQGGAPLAGTNKETTIQGLDGLSERCAQYKKDGVDFGKWRAVLRIADQCPSSLAIQENANALARYASICQQNGLVPIVEPEVLPDGDHDLEHCQYVSEKVLAAVYKALNDHHVYLEGTLLKPNMVTAGHACTKKYTPEQVAMATVTALHRTVPAAVPGICFLSGGMSEEDATLNLNAINRCPLPRPWKLSFSYGRALQASALAAWGGKAANKKATQEAFMKRAMANCQAAQGQYVHTGSSGAAATQSLFTASYTY
With B1 the “stoichiometry N” value was 2 and 4.
